Source: PMC11157483

Biological target: Aplysia californica acetylcholine binding protein (Aplysia californica)
Assay: cross-linking

stoichiometry N: 5
Substance: Aplysia californica acetylcholine binding protein (natural protein)
